Source: US20050053993A1, “Uses of an endothelial cell receptor” (priority 2002, published 2005)

Tests used:
[1] = target: T1, recombinant human GRP78 (rGRP78) (Homo sapiens, UniProt P11021); experiment: Equilibrium dialysis of rGRP78 and 3HK5; assay type: binding; conditions: competition dialysis, 2 nM GRP78 and 2 nM 3HK5; mutant up to 25-fold excess of GRP78
T1 construct: host or cells: yeast
Protocol: FIG. 14A is a graph showing equilibrium dialysis of recombinant GRP78 (rGRP78) and ^3HK5. ^3HK5 was added to one side of an equilibrium chamber at concentrations from 0.1 to 3 nM. 2 nM GRP78 was added to the other side of the chamber with a […] mwco filter between. ^3HK5 was allowed to equilibrate to both side of the chamber for 72 hours at room temperature. The amount of ^3HK5 on the GRP78 side of the chamber was compared to chamber with ^3HK5 alone to obtain the bound verses free rK5 distribution.
FIG. 14B is a graph showing competition binding dialysis rGRP78 and ^3HK5. Experiments were performed with 2 nM GRP78 and 2 nM ^3HK5 using rK5(K82A) mutant and unlabeled rK5 at various concentrations from 0.5 to 50 nM. The amount of ^3HK5 on both sides of the chamber was measured after 72 hours and compared to the control.
Binding of rK5 to rGRP78 was measured using equilibrium dialysis (Kariv I, Cao H, Oldenburg K R. Development of a high throughput equilibrium dialysis method. J Pharm Sci. 2001 May; 90(5):580-87). In the top well of a 96 well equilibrium dialyzer (molecular weight cut off 50K Daltons, Harvard Apparatus, Holliston, M A) 150 μl of 10 nM rGRP78 was added. In the reciprocal (bottom) chamber, 150 μl of increasing concentrations from 0.1 to 50 nM ^3HK5 was added. The chambers were shaken at room temperature for 72 hours. […]

LNCaP = experiment: Tumor cell proliferation, LNCaP; assay type: cell-based; conditions: 72 hours
Protocol: Cell Proliferation Assay. The effect of rK5 and rK5 peptides on endothelial cells were assessed using a proliferation assay with 1% BSA and 3 ng/ml bFGF in serum-free media. Relative cell numbers in each well of a 96 well microplate after incubation for 72 hours in the absence or presence of inhibitors were determined by using the AQueous cell proliferation assay (Promega, San Luis Obispo, Calif.). For all other cell lines tested for proliferation, minimal growth media was used (Cao, Y., Ji, R., Davidson, D., Schaller, J., Marti, D., Sohndel, S., McCance, S., O'Reilly, M., Llinas, M., and Folkman, J. Kringle domains of human angiostatin. Characterization of the anti-proliferative activity on endothelial cells. (1996) J. Biol. Chem. 271, 29461-29467). Results are presented as the percent inhibition of control cell (bFGF-induced) proliferation.

endothelial cells = experiment: Binding of labeled K5 to endothelial cells (Scatchard); parameters: species or system human; conditions: stimulated vs starved cells
From the text: FIG. 10A is a graph showing the amount of surface expressed GRP78 on endothelial cells compared to rK5 binding. For all the assays in this figure, 50,000 cells were attached to 96 well plates. Human rK5 potency is highly dependent on the extent of iodination because it contains a readily iodinated tyrosine in its binding sequence. […] However dog K5 has a phenylalanine in this position naturally and is folded and active in these assays. Accordingly ^125IrK5 (dog) was used as a reagent. ^125IrK5 (dog) was added to the wells and incubated at room temperature for 1 hour. After 1 hour the cells were washed and the amount of I^125IrK5 (dog) bound was counted.
FIG. 11 is a graph comparing the binding of rK5 to starved, quiescent endothelial cells with that of endothelial cells stimulated by VEGF/bFGF. […] The number of counts remaining bound to the cells after extensive washing determined total amount of rK5 bound.
Binding of human ^125IrK5 to Endothelial Cells: Tritium-labeled rK5 was added to monolayers of 50,000 HMVEC cells that were either starved or stimulated for 16 hours by 15 ng/ml bFGF and 5 ng/ml VEGF in 96 well plates. […] After 1 hour the cells were washed and lysed with M-Per (Pierce, Racine, Wis.) and the amount of ^125IK5 (dog) bound was counted. […] Cells were washed and the amount of bound ^125IK5 (dog) bound was counted. […]

[2] = test system: bovine endothelial cell proliferation; conditions: previously reported (Cao et al. 1996); read-out: IC50, inhibition of bovine endothelial cell proliferation; cited from earlier work

T1 sequence (P11021 19-654): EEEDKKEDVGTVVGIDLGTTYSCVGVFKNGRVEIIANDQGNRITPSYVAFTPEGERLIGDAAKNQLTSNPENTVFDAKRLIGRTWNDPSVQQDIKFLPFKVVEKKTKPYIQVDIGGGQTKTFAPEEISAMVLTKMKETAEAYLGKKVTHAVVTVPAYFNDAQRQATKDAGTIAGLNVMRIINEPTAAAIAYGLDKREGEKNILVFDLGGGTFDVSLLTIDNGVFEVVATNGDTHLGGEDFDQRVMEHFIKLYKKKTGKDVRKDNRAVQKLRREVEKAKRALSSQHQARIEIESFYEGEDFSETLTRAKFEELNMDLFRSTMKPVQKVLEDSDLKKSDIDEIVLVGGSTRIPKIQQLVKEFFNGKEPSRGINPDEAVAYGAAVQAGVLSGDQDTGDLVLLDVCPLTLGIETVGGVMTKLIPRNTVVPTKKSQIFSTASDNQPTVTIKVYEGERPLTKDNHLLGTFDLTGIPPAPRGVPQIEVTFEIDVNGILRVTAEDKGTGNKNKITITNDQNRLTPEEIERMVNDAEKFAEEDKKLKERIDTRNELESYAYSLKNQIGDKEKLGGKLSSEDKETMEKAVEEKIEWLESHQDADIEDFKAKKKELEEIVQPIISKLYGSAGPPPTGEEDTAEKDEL

- blocking of 3HK5 binding to rGRP78 [1]: blocked
- IC50 values for cell proliferation (LNCaP): >100 µg/mL
B1: rK5: recombinant kringle 5 fragment of human plasminogen (residues 450-543), expressed in E. coli or yeast (protein)
chain: LLPDVETPSEEDCMFGNGKGYRGKRATTVTGTPCQDWAAQEPHRHSIFTPETNPRAGLEKNYCRNPDGDVGGPWCYTTNPRKLYDYCDVPQCAA
- binding to stimulated endothelial cells upregulated as compared to starved cells (endothelial cells): 4-10 fold
- IC50 [2]: ~50 nM
